B1: monoclonal antibody 1F4 (hybridoma-produced, murine IgG2a) (antibody, V domains shown)
VH: QVHLQQSGSELRSPGSSVKLSCKDFDSEVFPIVYMRWIRQKPGHGFEWIGDILPSFGRTIYGEKFEDKATLDADTVSNTAYLELNSLTSEDSAIYYCARGDHGNWLAYWGQGTLVTVSA
VL: DIVMTQSHKFMSTSVGDRVTITCKASQDVSTNVAWYQQKPGQSPKLLIYWASTRHTGVPNRFTGIISGTDYTLTISSVQAEDRALYYCQQHYSAPWTFGGGTKLEIK
B2: recombinantly expressed 4F11 IgG2b (antibody, V domains shown)
VH: DVKLVESGGDLVKPGGSLKLSCAASGFTFSAYSMSWVRQTPERRLEWVATINTGGSFTYYPDSVKGRFTISRDNAKNTLYLQMSSLKSEDTAMYFCTRVSDYGNSAYFPYWGQGTLVIVFA
VL: QVVLTQSPALISASPGEKVTMTCSASSNVNYMSWYQQRPRSSPKPWIYLTSKLASGVPPRFSGSGSGTSYSLTISSMEAEDVATYYCQQWSSDPQTFGGGTKVEIK
B3: monoclonal antibody 4F11 (hybridoma-produced, murine IgG2b) (antibody, V domains shown)
VH: B2 VH
VL: B2 VL
B4: monoclonal antibody 1F2 (hybridoma-produced, murine IgG2a) (antibody, V domains shown)
VH: QVHLQQSGPEVARPGASVKLSCKASGYTFTDYYLNWVKQRPRQGLEWIGQIHPGSTNTYYNEKFKGKATLTADKSSSTAYMQLSSLTFEDSAVYFCAISLGDGYYVYAMVCWGQGTAVTVSS
VL: DIVMTQSQKFMSTSVGDRVSVTCKASQNVVTNVVWYQQKPGQSPKPLIYSASYRYSGVPDRFTGSGSGTDFTLTISNVQSEDLAEYCCQQYHSYPFTFGSGTKLEVK
B5: recombinantly expressed 1F2 IgG2a (antibody, V domains shown)
VH: B4 VH
VL: B4 VL
B6: recombinantly expressed 1F2 IgG2b (antibody, V domains shown)
VH: B4 VH
VL: B4 VL
B7: recombinantly expressed 1F2 IgG1 (antibody, V domains shown)
VH: B4 VH
VL: B4 VL
B8: recombinantly expressed 4F11 IgG1 (antibody, V domains shown)
VH: B2 VH
VL: B2 VL
B9: recombinantly expressed 4F11 IgG2a (antibody, V domains shown)
VH: B2 VH
VL: B2 VL
B10: recombinantly expressed 1F2 monomeric IgA (antibody, V domains shown)
VH: B4 VH
VL: B4 VL
B11: recombinantly expressed 4F11 monomeric IgA (antibody, V domains shown)
VH: B2 VH
VL: B2 VL
B12: recombinantly expressed 1F2 polymeric IgA (antibody, V domains shown)
VH: B4 VH
VL: B4 VL
B13: recombinantly expressed 4F11 polymeric IgA (antibody, V domains shown)
VH: B2 VH
VL: B2 VL
B14: recombinantly expressed 1F2 IgM (antibody, V domains shown)
VH: B4 VH
VL: B4 VL
B15: recombinantly expressed 4F11 IgM (antibody, V domains shown)
VH: B2 VH
VL: B2 VL
B16: 1F2 Fab (Fab, V domains shown)
VH: B4 VH
VL: B4 VL
B17: monoclonal antibody 3G1 (hybridoma-produced, murine IgG2a) (antibody, V domains shown)
VH: QVQLQQSGAELMKPGASVKISCKATGYKFTSYWIGWVKQRPGHGLEWCGEIFPGSGSINYNEKFKGKATFTADTSSNTAYLQLTSLTSEDSAVYYCARGEDYYGSSYGAMDYWGQGTSLTVSS
VL: DVQITQSPSYLAASPGETITINCRASKSISKYVAWYQEKPGRTNKVLIYSGSILSFGNPSRFSGSGSGTDFTLTISSLEPEDFAMYYCQQHNEYPWTFGGGTKLEIK
B18: monoclonal antibody 4B2 (hybridoma-produced, murine IgG2a) (antibody, V domains shown)
VH: QIQLVQSGPELKKPGETVKISCKASGFTFTDYPMHWVKQAPGKSLKWMGWINTETEEPTYSDDFKGRSPLSLETSASTTYLQINNLKNEDTSTYFCVRSGYYYGSTYAWFGYWGQGTLVTVSA
VL: DVVMTQIPLSLPVSLGDQASISCRSSQSLIHTNGDTFLHWYLQKPGQSPKLLIYKVSNRFSGVPDRFTGGGSGTDFTLKISRVEAEDLGIYFCSQSALFPYTFGGGTNLEIK

Each binder was assayed against recombinant neuraminidase (rNA) from B/Florida/04/2006 (influenza B virus B/Florida/04/06) (assay: not given).
For B1, the EC50 (read off the curve) was 0.05 µg/mL.

Each binder was assayed against recombinant neuraminidase (rNA) from B/Malaysia/2506/04 (influenza B virus B/Malaysia/2506/04) (assay: not given).
With B2 the EC50 (read off the curve) was 0.06 µg/mL.
B3 showed an EC50 (read off the curve) of 0.05 µg/mL.

Molecular target: recombinant neuraminidase (rNA) from B/Florida/04/2006 (influenza B virus B/Florida/04/06)
Assay: not given
Remark: another data set of the same source
B4 showed an EC50 (read off the curve) of 0.03 µg/mL.
With B5 the EC50 (read off the curve) was 0.03 µg/mL.
With B6 the EC50 (read off the curve) was 0.03 µg/mL.
B7 showed an EC50 (read off the curve) of 0.05 µg/mL.

Molecular target: recombinant neuraminidase (rNA) from B/Malaysia/2506/04 (influenza B virus B/Malaysia/2506/04)
Assay: not given
Remark: another data set of the same source
With B5 the Kd was 0.68 nM.
With B6 the Kd was 1.16 nM.
B2 showed a Kd of 0.00298 nM.
In the case of B7, the Kd is reported as 1.05 nM.
B8 gave a Kd of 0.00891 nM.
Work on B9 yielded a Kd of 0.00336 nM.
Work on B10 yielded a Kd of 0.958 nM.
B11 gave a Kd of 0.00472 nM.
For B12, the Kd was 0.28 nM.
Work on B13 yielded a Kd of 0.00242 nM.
For B14, the Kd was 0.65 nM.
Work on B15 yielded a Kd of 0.00511 nM.

Each binder was assayed against neuraminidase of wild type B/Malaysia/2506/04 virus (influenza B virus B/Malaysia/2506/04) (assay: not given).
With B4 the IC50 (read off the curve) was 2 µg/mL.
With B16 the IC50 (read off the curve) was 3 µg/mL.
In the case of B1, the IC50 (read off the curve) is reported as 4 µg/mL.
With B17 the IC50 (read off the curve) was 3 µg/mL.

Molecular target: neuraminidase of wild type B/Malaysia/2506/04 virus (influenza B virus B/Malaysia/2506/04)
Assay: not given
Remark: another data set of the same source
Work on B4 yielded an IC50 (read off the curve) of 0.09 µg/mL.
B5 gave an IC50 (read off the curve) of 0.1 µg/mL.
B6 showed an IC50 (read off the curve) of 0.3 µg/mL.

Molecular target: neuraminidase of wild type B/Malaysia/2506/04 virus (influenza B virus B/Malaysia/2506/04)
Assay: not given
Remark: another data set of the same source
B2 showed an IC50 (read off the curve) of 0.2 µg/mL.
B3 gave an IC50 (read off the curve) of 0.2 µg/mL.

The binders below were run against neuraminidase of the ancestral B/Lee/40 strain (influenza B virus B/Lee/40, UniProt P03474 1-466) (assay: ELISA on purified whole virus).
neuraminidase of the ancestral B/Lee/40 strain, sequence (P03474 whole entry): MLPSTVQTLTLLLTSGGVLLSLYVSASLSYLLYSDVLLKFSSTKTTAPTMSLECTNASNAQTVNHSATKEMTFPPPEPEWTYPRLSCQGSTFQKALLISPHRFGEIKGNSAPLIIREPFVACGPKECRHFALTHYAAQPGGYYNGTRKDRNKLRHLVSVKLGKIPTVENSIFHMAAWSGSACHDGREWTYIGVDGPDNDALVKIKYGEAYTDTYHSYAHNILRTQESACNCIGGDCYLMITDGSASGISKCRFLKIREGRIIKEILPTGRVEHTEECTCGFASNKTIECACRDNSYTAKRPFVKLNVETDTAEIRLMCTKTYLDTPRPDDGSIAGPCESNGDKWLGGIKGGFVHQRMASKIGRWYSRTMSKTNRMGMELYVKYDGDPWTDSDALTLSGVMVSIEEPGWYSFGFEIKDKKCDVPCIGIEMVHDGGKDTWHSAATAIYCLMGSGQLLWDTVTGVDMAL
B4: binds.
B1: binds.
B17: binds.
B3: binds.
B18: binds.

Reference: patent US20220363736A1 (ICAHN SCHOOL OF MEDICINE AT MOUNT SINAI, published 2022)
